Reference: US20260103529A1, “Amino Acid Sequences Directed Against the Melanocortin 4 Receptor and Polypeptides Comprising the Same for the Treatment of MC4R-Related Diseases and Disorders” (Confo Therapeutics N.V., priority 2022, published 2026)

Assays:
[1] = tested on: highly pigmented normal human epidermal melanocytes (NHEM-HP); assay: In vitro pigmentation assay, melanin synthesis, 2D NHEM highly pigmented; assay type: cell-based; conditions: 10 μM, 10 days
Method: Highly and moderately pigmented melanocytes were seeded in 24-well plates and cultured in culture medium for 24 hours. The medium was then replaced by culture medium containing or not (control) the test compounds or the reference compounds (L-tyrosine at 1 mM, IBMX at 100 and 200 μM and NDP-MSH at 10 μM). The cells were then incubated for 10 days with treatment renewal at day 3 and day 7. All experimental conditions were performed in n=3. At the end of the incubation time, the culture supernatants were removed, and melanin was extracted by cell lysis using a 0.5 N NaOH solution. The optical density (OD) of each experimental point was measured at 405 nm and melanin quantity was determined according to melanin standard curve (standard curve ranging from 0.39 to 100 μg/ml). The results were expressed in μg/ml of melanin. […] NHEM-HP response to L-tyrosine and NDP-MSH was stronger than in NHEM-MP while IBMX induced a stronger response in the NHEM-MP.

[2] = tested on: melanized reconstituted human epidermis (RHE/MEL/001); assay: In vitro pigmentation assay, 3D reconstituted human epidermis, dermoscopy; assay type: cell-based
Method: The study was carried out on melanized human epidermis (RHE/MEL/001; batch CB0521-3) in vitro reconstituted with NHEKs (Normal human epidermal keratinocytes, Lonza 00192906) isolated from foreskin of 3 neonatal Caucasian donors and NHEM-DP (Normal Human Epidermal Melanocytes-Darkly pigmented) isolated form one donor (phototype IV-V). The tissues were cultured at the air-liquid interface in Epilife medium (Fisher Scientific, MEP1500CA) containing specific supplements (with among others Human Keratinocytes Growth Factors, Fisher Scientific S0015 or SO01K) and antibiotics (Gentamycin, Fisher Scientific, 15710049). They were maintained in a humid atmosphere at 37° C. with 5% CO2.
RHE/MEL/001 were reconstituted and cultivated at the air-liquid interface during 14 days in Epilife medium supplemented with specific growth supplements (as described in paragraph 1) in a humid atmosphere at 37° C. with CO2 5%.
IBMX (Sigma; 15879) at 100 µM was used as tanning reference compound to validate the experiment. A DMSO control (corresponding to the solvent used to solubilize IBMX) at 0.02% (corresponding to the final concentration in DMSO found in the culture medium for the condition treated with IBMX) was planned as well. Four replicates were planned per condition (n=4).
At the end of the 10 days treatments (at day 14), macroscopic high-resolution pictures of tissues (n=4) were taken. This was performed using the C-Cube device (Dermoscope type tool; Pixience, France) coupled to C-Cube clinical 3 software, which uses a proprietary method of colour calibration, and provides razor-sharp images of high quality and precision. The following endpoints were calculated, each one taking into account 3 values from the mode “L* a* b*” with L* reflecting the luminance/brightness (value from 0 to 100 with high values for clear skins), a* to gives an idea about the redness of the skin (value from −60 to 60 on the red/green axis) and b* to gives an idea about the yellowness of the skin (value from −60 to 60 on the blue/yellow axis): • ITA (Individual Typology Angle) characterizing the phototype, compared to a standard scale, with ITA>55° for very clear skins and ITA<−30° for black skins. • PI (Pigmentation Index) whose value is directly proportional to the skin pigmentation, with PI from 140 for clear skins to 200 for dark skins. • Colorimetric difference (score or ΔE) allows to quantify colour variation between a test condition and a reference. […]
The two test items, hydro-soluble, were evaluated in parallel of one reference compound known to be a pigmentation inducer, namely IBMX. Their capacity to stimulate the production of melanin was evaluated by visual quantification of melanin on macroscopic high resolution pictures obtained by dermoscopy. […]

human wild type MC1R = target: T1, human wild type MC1R (Homo sapiens, UniProt Q01726); assay: cAMP GloSensor assay, MC1R; assay type: cell-based
T1 construct: expressed in transfected cells; host or cells: HEK293 / HEK 293T, pcDNA3.1(+)

MC4R = assay: Radioligand displacement, CHO stable cell line; assay type: binding; conditions: mean ± spread, n = 2
[3] = 10 μM in culture medium, 10 days, dermoscopy

T1 sequence (Q01726 whole entry): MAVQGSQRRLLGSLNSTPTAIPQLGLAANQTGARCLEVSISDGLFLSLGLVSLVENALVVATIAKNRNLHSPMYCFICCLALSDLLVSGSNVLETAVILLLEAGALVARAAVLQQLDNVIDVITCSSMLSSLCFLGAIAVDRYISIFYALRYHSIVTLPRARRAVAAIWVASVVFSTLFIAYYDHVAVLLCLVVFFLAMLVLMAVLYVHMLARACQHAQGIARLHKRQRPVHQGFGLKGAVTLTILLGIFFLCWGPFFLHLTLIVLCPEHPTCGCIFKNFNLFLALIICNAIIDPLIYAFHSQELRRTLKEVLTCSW

B1: pN162: agonistic anti-MC4R VHH, SEQ ID NO: 184; parental clone for potency maturation (protein)
VHH: QVQLVESGGGLVQPGGSLRLSCAASGSAFSLNVMGWYRQTPGNQRALVAEITKDGSTNYADSAKGRFTISRDNAKNTVHLQMDSLKPEDTAVYYCKARTGRIVRPLDYWGQGTQVTVSS
modifications: pN0162
melanin synthesis [1]: 89 % of the control
Individual typology angle (ITA) [2, 3]: No significant effects
pigmentation index (PI) [2, 3]: No significant effects
visual colorimetric difference (score, ΔE) [2, 3]: No significant effects
effect on epidermis pigmentation (conclusion of dermoscopy analysis) ([2]; 10 μM, human epidermis in culture): no effect on epidermis pigmentation
detectable cAMP signaling, MC1R (human wild type MC1R; GloSensor head-to-head receptor subtype comparison): only induced detectable signaling on MC4R
cAMP potency (EC50) MC1R (human wild type MC1R; GloSensor, average EC50, human MC1R): No effect
Radioligand displacement (MC4R): 6.48 ± 1.96 nM
